From patent US20190359677A1 (published 2019)

What was measured:
[1] = target: T1, MCV trLT (truncated large T antigen of Merkel cell polyomavirus) peptide on HLA-A*02:01 (human); experiment: cytokine release
T1 peptide: SMFDEVDEA

[2] = target: T2, MCV trLT and sT (large T and small T antigens of Merkel cell polyomavirus, shared exon 1) peptide on … (human); experiment: cytokine release
T2 peptide: KLLEIAPNC

B1: SMF-72 (TCR, V domains shown)
Valpha: AQTVTQSQPEMSVQEAETVTLSCTYDTSESDYYLFWYKQPPSRQMILVIRQEAYKQQNATENRFSVNFQKAAKSFSLKISDSQLGDAAMYFCAYRGTSGTYKYIFGTGTRLKVLA
Vbeta: DTGVSQDPRHKITKRGQNVTFRCDPISEHNRLYWYRQTLGQGPEFLTYFQNEAQLEKSRLLSDRFSAERPKGSFSTLEIQRTEQGDSAMYLCASSKLAGKNIQYFGAGTRLSVL
Question: Does B1 bind [1]?
Answer: Result: recognises

Question: Does B1 bind [2]?
Answer: Result: no recognition

B2: SMF-48 (TCR, V domains shown)
Valpha: AQTVTQSQPEMSVQEAETVTLSCTYDTSESNYYLFWYKQPPSRQMILVIRQEAYKQQNATENRFSVNFQKAAKSFSLKISDSQLGDTAMYFCAFMKRGNRDDKIIFGKGTRLHILP
Vbeta: GAVVSQHPSWVICKSGTSVKIECRSLDFQATTMFWYRQFPKQSLMLMATSNEGSKATYEQGVEKDKFLINHASLTLSTLTVTSAHPEDSSFYICSASPTSGRRTQYFGPGTRLTVL
Question: Does B2 bind [1]?
Answer: Result: recognises

Question: Does B2 bind [2]?
Answer: Result: no recognition

B3: KLL-85 (TCR, V domains shown)
Valpha: GQQLNQSPQSMFIQEGEDVSMNCTSSSIFNTWLWYKQDPGEGPVLLIALYKAGELTSNGRLTAQFGITRKDSFLNISASIPSDVGIYFCAGQLNQGAQKLVFGQGTRLTINP
Vbeta: DAGVIQSPRHEVTEMGQEVTLRCKPISGHNSLFWYRQTMMRGLELLIYFNNNVPIDDSGMPEDRFSAKMPNASFSTLKIQPSEPRDSAVYFCASSFYSADTQYFGPGTRLTVL
Question: Does B3 bind [2]?
Answer: Result: recognises
